Data taken from EP2848684A1.

Target: NifDK complex purified from Azotobacter vinelandii (Azotobacter vinelandii) (UniProt P07328)
Test: cell-based or functional assay

Chain of UniProt P07328 (P07328 2-492 limits assumed, chain 1 of 2): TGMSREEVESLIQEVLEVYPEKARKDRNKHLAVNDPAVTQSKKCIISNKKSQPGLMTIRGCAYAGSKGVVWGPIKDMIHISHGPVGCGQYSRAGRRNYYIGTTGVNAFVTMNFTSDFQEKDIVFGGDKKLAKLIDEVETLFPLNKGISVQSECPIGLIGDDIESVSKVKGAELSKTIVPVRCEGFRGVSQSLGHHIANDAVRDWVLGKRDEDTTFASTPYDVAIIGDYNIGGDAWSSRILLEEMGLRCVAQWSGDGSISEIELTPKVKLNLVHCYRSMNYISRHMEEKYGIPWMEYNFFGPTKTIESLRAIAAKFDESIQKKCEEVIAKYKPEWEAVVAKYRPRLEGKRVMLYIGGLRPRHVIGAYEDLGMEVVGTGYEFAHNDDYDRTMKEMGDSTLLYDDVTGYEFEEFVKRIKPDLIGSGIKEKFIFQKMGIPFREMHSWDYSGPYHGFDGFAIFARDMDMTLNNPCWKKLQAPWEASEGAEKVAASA
Chain of UniProt P07328 (P07329 2-523 limits assumed, chain 2 of 2, further chain): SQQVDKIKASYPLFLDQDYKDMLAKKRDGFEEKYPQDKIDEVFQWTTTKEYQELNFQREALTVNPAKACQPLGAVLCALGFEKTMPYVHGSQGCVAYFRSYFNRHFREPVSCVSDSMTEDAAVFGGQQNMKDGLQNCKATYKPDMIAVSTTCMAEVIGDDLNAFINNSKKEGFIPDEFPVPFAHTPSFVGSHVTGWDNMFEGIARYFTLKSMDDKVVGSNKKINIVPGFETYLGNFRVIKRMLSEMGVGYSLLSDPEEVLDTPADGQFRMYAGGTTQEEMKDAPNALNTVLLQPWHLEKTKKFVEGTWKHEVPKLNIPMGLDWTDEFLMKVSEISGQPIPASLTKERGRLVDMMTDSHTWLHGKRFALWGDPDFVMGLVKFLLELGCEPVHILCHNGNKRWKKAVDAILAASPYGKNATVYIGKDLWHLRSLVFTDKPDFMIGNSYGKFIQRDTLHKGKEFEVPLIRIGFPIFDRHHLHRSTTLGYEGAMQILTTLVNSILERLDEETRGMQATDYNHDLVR

Ammonia | RFU (Relative Fluorescence Units, ammonia detection) | Substance
179 nmol/mL | 1300 RFU | NifH protein purified from Azotobacter vinelandii (from UniProt P00459 2-290) (enzyme)
200 nmol/mL | 1460 RFU | NifH purified from recombinant Saccharomyces cerevisiae GF2 cells (mlsSOD2-his8-NifH, A. vinelandii NifH sequence) (from UniProt P00459 1-290) (enzyme)
